14 molecules from US20060257938A1, “Method of screening for drugs that block ligand binding to a lipid binding protein” (priority 2005, published 2006) can be followed below.

Residue numbers refer to the chain shown, from its start. “And” between values parts separate entries of the source, which are not always exact repeats. Equal values may be shown once.

B1: 72Q (protein, listed as Rattus norvegicus)
chain: AFDGTWKVDRNENYEKFMEKMGINVVKRKLGAHDNLKLTITQEGNKFTVKESSNFRNIDVVFELGVDFAYSQADGTELTGTWTMEGNKLVGKFKRVDNGKELIAVREISGNELIQTYTYEGVEAKRIFKKE
modifications: PEPTIDE (1)...(131) wild-type rat intestinal fatty acid binding protein
B2: 73L, 72A (protein, listed as Rattus norvegicus)
chain: B1 chain with Q72A, A73L
modifications: PEPTIDE (1)...(131) wild-type rat intestinal fatty acid binding protein
B3: 72R (protein, listed as Rattus norvegicus)
chain: B1 chain with Q72R
modifications: PEPTIDE (1)...(131) wild-type rat intestinal fatty acid binding protein
B4: 73K, 72A (protein, listed as Rattus norvegicus)
chain: B1 chain with Q72A, A73K
modifications: PEPTIDE (1)...(131) wild-type rat intestinal fatty acid binding protein
B5: 73F, 72A (protein, listed as Rattus norvegicus)
chain: B1 chain with Q72A, A73F
modifications: PEPTIDE (1)...(131) wild-type rat intestinal fatty acid binding protein
B6: 73P, 72A (protein, listed as Rattus norvegicus)
chain: B1 chain with Q72A, A73P
modifications: PEPTIDE (1)...(131) wild-type rat intestinal fatty acid binding protein
B7: 73G, 72A (protein, listed as Rattus norvegicus)
chain: B1 chain with Q72A, A73G
modifications: PEPTIDE (1)...(131) wild-type rat intestinal fatty acid binding protein
B8: 73N, 72A (protein, listed as Rattus norvegicus)
chain: B1 chain with Q72A, A73N
modifications: PEPTIDE (1)...(131) wild-type rat intestinal fatty acid binding protein
B9: 72V (protein, listed as Rattus norvegicus)
chain: B1 chain with Q72V
modifications: PEPTIDE (1)...(131) wild-type rat intestinal fatty acid binding protein
B10: 72S (protein, listed as Rattus norvegicus)
chain: B1 chain with Q72S
modifications: PEPTIDE (1)...(131) wild-type rat intestinal fatty acid binding protein
B11: 73H, 72A (protein, listed as Rattus norvegicus)
chain: B1 chain with Q72A, A73H
modifications: PEPTIDE (1)...(131) wild-type rat intestinal fatty acid binding protein
B12: 72Y (protein, listed as Rattus norvegicus)
chain: B1 chain with Q72Y
modifications: PEPTIDE (1)...(131) wild-type rat intestinal fatty acid binding protein
B13: 73E, 72A (protein, listed as Rattus norvegicus)
chain: B1 chain with Q72A, A73E
modifications: PEPTIDE (1)...(131) wild-type rat intestinal fatty acid binding protein
B14: 104F3, 72A (protein, listed as Rattus norvegicus)
chain: B1 chain with Q72A, A104F
modifications: PEPTIDE (1)...(131) wild-type rat intestinal fatty acid binding protein

One experiment in a line: Probe fluorescence ratio response to arachidonic acid relative to ADIFAB2. The note with it: Arachidonic acid; response relative to ADIFAB2. Format: binding. The method in brief: (§1)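 Fluorescently labeled rat intestinal FABP variants were read at two emission wavelengths, near the unbound maximum (about 420 to 480 nm) and the FFA-bound maximum (about 495 to 580 nm). R = Fλ1/Fλ2 after subtracting probe-free intensity; ΔR = R+agent − R0, normalized to ADIFAB2 (rI-FABP-L72A).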
On to B1, for which the “DR/DR AA” value is 0.77.

B2: the “DR/DR AA” value came out at 0.73.

Take B3: the “DR/DR AA” value was found to be 0.45.

As to B4, the “DR/DR AA” value amounted to 0.30.

Turning to B5, the “DR/DR AA” value was 1.21.

For the molecule B6, the “DR/DR AA” value is recorded as 0.42.

As to B7, the “DR/DR AA” value was determined as 0.46.

Consider B8, for which the “DR/DR AA” value turned out to be 0.48.

Take B9: the “DR/DR AA” value is recorded as 0.18.

Turning to B10, the “DR/DR AA” value is 0.65.

Consider B11, for which the “DR/DR AA” value stood at 0.15.

In the case of B12, the “DR/DR AA” value is 0.35.

Consider B13, for which the “DR/DR AA” value is given as 0.15.

Still in this experiment, the particulars now being: arachidonic acid; response relative to ADIFAB2.
On to B1, for which the “DR/DR AA” value was 0.770.

Turning to B2, the “DR/DR AA” value is on record as 0.733.

For B5, the “DR/DR AA” value stood at 1.208.

B14: the “DR/DR AA” value is recorded as 0.71.

Turning to B12, the “DR/DR AA” value worked out at 0.346.

A short description of another experiment: Probe fluorescence ratio response to linolenic acid relative to ADIFAB2. To be noted: response relative to ADIFAB2. It counts as binding. The method in brief:
as §1
As for B1, the “DR/DR LNA” value is 0.73 and 0.735.

As to B2, the “DR/DR LNA” value was 0.34 and 0.338.

Consider B3, for which the “DR/DR LNA” value stood at 0.49.

As for B4, the “DR/DR LNA” value is 0.28.

Turning to B5, the “DR/DR LNA” value was 1.86 and 1.861.

For the molecule B6, the “DR/DR LNA” value came out at 0.41.

On to B7, for which the “DR/DR LNA” value came out at 0.53.

Take B8: the “DR/DR LNA” value was 0.47.

Regarding B14, the “DR/DR LNA” value was determined as 0.45.

Turning to B9, the “DR/DR LNA” value is given as 0.15.

For the molecule B10, the “DR/DR LNA” value turned out to be 0.71.

Turning to B11, the “DR/DR LNA” value was 0.25.

Turning to B12, the “DR/DR LNA” value was 0.59 and 0.594.

On to B13, for which the “DR/DR LNA” value is 0.14.

Another experiment can be described thus: Probe fluorescence ratio response to linoleic acid relative to ADIFAB2. It counts as binding. The note with it: response relative to ADIFAB2. The method in brief:
as §1
For B1, the “DR/DR LA” value is 0.76 and 0.762.

As to B2, the “DR/DR LA” value is 0.33 and 0.325.

As to B3, the “DR/DR LA” value is 0.51.

As to B4, the “DR/DR LA” value is recorded as 0.29.

B5: the “DR/DR LA” value was 1.23 and 1.234.

For the molecule B6, the “DR/DR LA” value worked out at 0.30.

In the case of B7, the “DR/DR LA” value was 0.56.

As for B8, the “DR/DR LA” value was found to be 0.43.

Take B14: the “DR/DR LA” value amounted to 0.50.

As for B9, the “DR/DR LA” value is 0.21.

As to B10, the “DR/DR LA” value came to 0.73.

Regarding B11, the “DR/DR LA” value came out at 0.18.

As to B12, the “DR/DR LA” value is 0.64 and 0.637.

Take B13: the “DR/DR LA” value was found to be 0.19.

Another experiment in a line: Probe fluorescence ratio response to oleic acid relative to ADIFAB2. Format: binding. The note with it: response relative to ADIFAB2. The method in brief: as §1
Turning to B1, the “DR/DR OA” value is 0.78 and 0.777.

As to B2, the “DR/DR OA” value was 0.38.

As to B3, the “DR/DR OA” value is 0.45.

Consider B4, for which the “DR/DR OA” value turned out to be 0.28.

Regarding B5, the “DR/DR OA” value is 0.73 and 0.728.

B6: the “DR/DR OA” value was determined as 0.30.

For B7, the “DR/DR OA” value is 0.52.

Take B8: the “DR/DR OA” value was determined as 0.41.

For the molecule B14, the “DR/DR OA” value amounted to 0.47.

For the molecule B9, the “DR/DR OA” value is recorded as 0.20.

In the case of B10, the “DR/DR OA” value amounted to 0.62.

Regarding B11, the “DR/DR OA” value worked out at 0.13.

As to B12, the “DR/DR OA” value is 0.56 and 0.557.

As for B13, the “DR/DR OA” value was 0.14.

The next experiment is described as follows: Probe fluorescence ratio response to palmitic acid relative to ADIFAB2. Format: binding. To be noted: response relative to ADIFAB2. The method in brief: as §1
With B1, the “DR/DR PA” value is 0.99 and 0.989.

For the molecule B2, the “DR/DR PA” value was 0.25 and 0.251.

Regarding B3, the “DR/DR PA” value is recorded as 0.26.

Regarding B4, the “DR/DR PA” value was 0.15.

In the case of B5, the “DR/DR PA” value is 1.13 and 1.128.

For the molecule B6, the “DR/DR PA” value amounted to 0.26.

As to B7, the “DR/DR PA” value is 0.41.

Regarding B8, the “DR/DR PA” value stood at 0.39.

Consider B14, for which the “DR/DR PA” value was 0.25.

Take B9: the “DR/DR PA” value was 0.16.

As for B10, the “DR/DR PA” value is recorded as 0.68.

As to B11, the “DR/DR PA” value stood at 0.16.

Regarding B12, the “DR/DR PA” value was 0.41 and 0.415.

For B13, the “DR/DR PA” value was 0.13.
